Experiment [1] has as its system SK-N-BE(2)-M17 (M17) cells. Kind of experiment: Rotenone toxicity in stably transfected cell lines, LDH release. It is filed as cell-based. Conditions: for rotenone-induced cell death, % of that in control cells: 1 μM rotenone, LDH release; for rotenone-induced cell death, % of that in control cells / protection against rotenone toxicity (LDH release): 48 hours; for protection against rotenone toxicity (LDH release): rotenone at varying concentrations. The protocol:
Cell lines stably-transfected with either 14-3-3θ or empty vector were treated with varying concentrations of rotenone (0-25 μM) for 24 hours (FIG. 6A), 30 hours (FIG. 6B), or 48 hours (FIG. 6C). Cell death was assayed by LDH release into the culture media. LDH release into media was normalized to total LDH release for each well. […] Rater was blind to experimental condition. n=8 for each experimental condition. *p<0.05, ***p<0.001 (Bonferroni's multiple comparison test).
M17 cell lines stably-transfected with either a 14-3-3 isoform or empty vector were treated with varying concentrations of rotenone (0-25 μM) for 48 hours. Cell death was assayed by LDH release into the culture media. LDH release into media was normalized to total LDH release for each well. […] Results reflect two to three independent experiments with at least two replicates per experiment. *p<0.05, **p<0.01, ***p<0.001 (Bonferroni's multiple comparison test).
Additional studies were performed to evaluate the effect of 14-3-3 polypeptide isoforms in mammalian cells. In these studies, cDNA clones for the 14-3-3 polypeptide β, γ, ε, η, θ, and σ isoforms were subcloned into the mammalian expression vector pcDNA 3.1/V5/His (Invitrogen). The polypeptide expressed from this vector contains the particular 14-3-3 isoform with a V5 and a His6 tag at the C-terminal end. […] SK-N-BE(2)-M17 (M17) cells, a dopaminergic-producing human neuroblastoma cell line, were transfected with each isoform or empty vector using Superfect, and stably-transfected cells were selected for in the presence of G418.
The M17 14-3-3θ clones were examined for their resistance to rotenone (0-25 μM). M17 cell lines stably transfected with either 14-3-3θ or empty vector were treated with rotenone for 24 (FIG. 6A), 30 (FIG. 6B) or 48 hours (FIG. 6C). Cell death was assayed by […] (LDH) release into the culture media using the LDH assay kit from Roche. LDH release into media was normalized to total LDH release for each well. Results reflect three independent experiments with at least two replicates per experiment.
Stable M17 cell lines overexpressing these other isoforms were treated with rotenone at varying concentrations, and then cell death was assayed at 48 hours by LDH release. […]
(LDH leaks from cells whose membrane has failed.)

The subject of experiment [2] is H4 cells. Kind of experiment: α-syn aggregation assay (synT + synphilin co-transfection). To be noted: isoform co-transfected with synT and synphilin; 24 hours after transfection; vs empty vector. The format is cell-based. The protocol:
H4 cells were cotransfected with either empty vector or a 14-3-3 isoform along with synT and synphilin. 24 hours after transfection, cells were fixed and stained with a monoclonal antibody against α-syn. Cells that stained for α-syn were scored as positive or negative for α-syn aggregates, with the rater blind to experimental condition. Results reflect three independent experiments with four replicates per experiment. ***p<0.001 (Bonferroni's multiple comparison test).
To evaluate this hypothesis the effect of increased 14-3-3 polypeptide expression on α-syn aggregation was evaluated. In this experiment, the model of McLean et al., in which α-syn/green fluorescent protein (GFP) fusion protein (synT) forms visible aggregates in cells when expressed with synphilin (McLean, P J et al., Neuroscience, 104:901-12, 2001) was used. This system has been used to evaluate the effect of different polypeptides on α-syn aggregation (Kiucken, J., et al, J Biol Chem, 279:4625-31, 2004). Briefly, H4 cells were co-transfected with either empty vector or a vector containing nucleic acid encoding a 14-3-3 isoform, along with synT and synphilin. Twenty-four hours after transfection, cells were fixed and stained with a monoclonal antibody against α-syn. Results are shown in FIG. 3 and reflect three independent experiments with 4 replicates per experiment. […] These are the same 14-3-3 isoforms that were decreased in α-syn transgenic mice (see FIG. 2).
Primers against each of the human 14-3-3 isoforms were designed using Primer3. […] All cells stained for α-syn were scored as positive or negative for α-syn aggregates, with the rater blind to experimental condition. • α-syn toxicity assay H4 cells were transfected with α-syn and either empty vector control or a 14-3-3 isoform using Superfect transfection reagent (Qiagen). 24 hours after transfection, toxicity was measured by the amount of adenylate kinase released into the media using the ToxiLight™ kit (Cambrex). • Creation of stable cell lines Each 14-3-3 isoform was subcloned into the mammalian expression vector mcDNA3.1/V5-His (Invitrogen). […]

“14-3-3γ: 14-3-3 polypeptide γ isoform, overexpressed from expression vector”: in experiment [1] (stable overexpression), the “rotenone-induced cell death, % of that in control cells” value (“rotenone-induced cell death, % of that” below) was 55% and the “protection against rotenone toxicity (LDH release)” value (from here on “protection … (LDH release)”) is listed as “prominent reduction in rotenone-induced toxicity”. Besides, the “decrease in the number of H4 cells displaying α-syn aggregates” value (shortened to “decrease in the number”) in experiment [2] turned out to be 40%.

B1: 14-3-3θ: 14-3-3 polypeptide θ isoform, overexpressed from V5/His-tagged pcDNA3.1 vector (or as transgene in C. elegans) (protein, UniProt P27348 1-245, looked up)
14-3-3 protein theta: MEKTELIQKAKLAEQAERYDDMATCMKAVTEQGAELSNEERNLLSVAYKNVVGGRRSAWRVISSIEQKTDTSDKKLQLIKDYREKVESELRSICTTVLELLDKYLIANATNPESKVFYLKMKGDYFRYLAEVACGDDRKQTIDNSQGAYQEAFDISKKEMQPTHPIRLGLALNFSVFYYEILNNPELACTLAKTAFDEAIAELDTLNEDSYKDSTLIMQLLRDNLTLWTSDSAGEECDAAEGAEN
modifications: V5/His tag
B1: in experiment [1] (0.04 and 0.2 μM rotenone), the “protection against rotenone at low doses” value is listed as “Mild protection”. Further, the “protection against rotenone at higher doses” value in experiment [1] (1 and 5 μM rotenone) is given as “more prominent protection”. Also, in experiment [1] (stable overexpression), the “rotenone-induced cell death, % of that” value is given as 45%. Further, the “resistance to rotenone toxicity compared to control cells (LDH release)” value in experiment [1] (stable overexpression, rotenone 0-25 μM, 24, 30 or 48 hours) is on record as “more resistant to rotenone toxicity”. Further, the “decrease in the number” value in experiment [2] amounted to 40%.

B2: 14-3-3ζ: 14-3-3 polypeptide ζ isoform, overexpressed from expression vector (protein, UniProt P63104 1-245, looked up)
14-3-3 protein zeta/delta: MDKNELVQKAKLAEQAERYDDMAACMKSVTEQGAELSNEERNLLSVAYKNVVGARRSSWRVVSSIEQKTEGAEKKQQMAREYREKIETELRDICNDVLSLLEKFLIPNASQAESKVFYLKMKGDYYRYLAEVAAGDDKKGIVDQSQQAYQEAFEISKKEMQPTHPIRLGLALNFSVFYYEILNSPEKACSLAKTAFDEAIAELDTLSEESYKDSTLIMQLLRDNLTLWTSDTQGDEAEAGEGGEN
With B2, in experiment [1] (stable overexpression), the “rotenone-induced cell death, % of that” value turned out to be 78% and the “protection … (LDH release)” value was “some protection”.

B3: 14-3-3ε: 14-3-3 polypeptide ε isoform, overexpressed from expression vector (protein, UniProt P62258 1-255, looked up)
14-3-3 protein epsilon: MDDREDLVYQAKLAEQAERYDEMVESMKKVAGMDVELTVEERNLLSVAYKNVIGARRASWRIISSIEQKEENKGGEDKLKMIREYRQMVETELKLICCDILDVLDKHLIPAANTGESKVFYYKMKGDYHRYLAEFATGNDRKEAAENSLVAYKAASDIAMTELPPTHPIRLGLALNFSVFYYEILNSPDRACRLAKAAFDDAIAELDTLSEESYKDSTLIMQLLRDNLTLWTSDMQGDGEEQNKEALQDVEDENQ
B3: in experiment [1] (stable overexpression), the “rotenone-induced cell death, % of that” value is reported as 65% and the “protection … (LDH release)” value is reported as “prominent reduction in rotenone-induced toxicity”. Also, the “decrease in the number” value in experiment [2] is 40%.

The values above are taken from US7919262B2, “14-3-3 proteins for diagnosis of Parkinson's disease” (The UAB Research Foundation, priority 2007, dated 2011).
